The target in this series is RPA (Homo sapiens, UniProt P27694;P15927;P35244 1-616;1-270;1-121). In words: EMSA.
Sequence of RPA (P27694 whole entry, chain 1 of 3): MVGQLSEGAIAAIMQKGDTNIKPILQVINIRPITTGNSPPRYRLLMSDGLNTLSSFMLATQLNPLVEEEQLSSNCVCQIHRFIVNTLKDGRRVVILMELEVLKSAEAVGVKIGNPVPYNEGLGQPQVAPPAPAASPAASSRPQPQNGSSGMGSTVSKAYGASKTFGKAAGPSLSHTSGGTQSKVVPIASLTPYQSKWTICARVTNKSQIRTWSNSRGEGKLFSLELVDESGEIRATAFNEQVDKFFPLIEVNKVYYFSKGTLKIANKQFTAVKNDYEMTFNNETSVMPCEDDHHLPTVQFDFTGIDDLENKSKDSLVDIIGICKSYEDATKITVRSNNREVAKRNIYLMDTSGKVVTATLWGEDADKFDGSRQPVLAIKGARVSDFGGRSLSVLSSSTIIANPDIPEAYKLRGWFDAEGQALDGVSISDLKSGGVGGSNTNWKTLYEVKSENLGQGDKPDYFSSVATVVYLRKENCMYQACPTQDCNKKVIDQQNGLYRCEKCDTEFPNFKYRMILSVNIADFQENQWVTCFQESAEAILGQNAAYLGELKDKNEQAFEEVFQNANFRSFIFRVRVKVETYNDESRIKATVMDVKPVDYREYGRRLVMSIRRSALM
Sequence of RPA (P15927 whole entry, chain 2 of 3): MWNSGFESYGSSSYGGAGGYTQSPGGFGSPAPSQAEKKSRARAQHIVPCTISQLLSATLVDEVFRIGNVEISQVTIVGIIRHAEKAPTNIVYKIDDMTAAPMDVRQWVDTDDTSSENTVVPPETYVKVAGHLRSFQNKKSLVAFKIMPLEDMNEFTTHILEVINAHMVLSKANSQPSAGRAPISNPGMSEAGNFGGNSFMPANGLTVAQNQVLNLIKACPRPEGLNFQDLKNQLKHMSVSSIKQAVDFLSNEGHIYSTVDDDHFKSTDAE
Sequence of RPA (P35244 whole entry, chain 3 of 3): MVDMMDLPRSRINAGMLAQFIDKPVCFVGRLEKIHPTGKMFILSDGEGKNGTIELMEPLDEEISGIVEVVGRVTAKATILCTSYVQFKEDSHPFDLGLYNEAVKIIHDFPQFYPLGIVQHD

B1: R:D (25-bp RNA:DNA hybrid) (DNA:RNA)
RNA: GCAGCUGGCACGACAGGUAUGAAUC
DNA: GATTCATACCTGTCGTGCCAGCTGC
Turning to B1, the binding result is “no binding”.

Values taken from PMC5507214.
